Measurements from US20160257710A1, “SELECTIVE INHIBITORS OF PROTEINASE 3” (INSERM (INSTITUT NATIONAL DE LA SANTÉ ET LA RECHERCHE …, priority 2013, published 2016).
Where no end group is shown, it is not given here. [ ]: non-standard residue; d: D form. The star is where a group is joined. pNA = O=[N+]([O-])c1ccc(N*)cc1; AlaP = not defined here; Ahx = NCCCCCC(=O)O; pentyl = CCCCC*

How the values were obtained:
Type in all cases: biochemical
Elastase = target: T1, Elastase (Homo sapiens, UniProt P08246); experiment: Protease inhibition assay, second order rate constant kobs/[I] (method of Tian and Tsou); settings: n.s where no significant inhibition
T1 sequence (P08246 30-267): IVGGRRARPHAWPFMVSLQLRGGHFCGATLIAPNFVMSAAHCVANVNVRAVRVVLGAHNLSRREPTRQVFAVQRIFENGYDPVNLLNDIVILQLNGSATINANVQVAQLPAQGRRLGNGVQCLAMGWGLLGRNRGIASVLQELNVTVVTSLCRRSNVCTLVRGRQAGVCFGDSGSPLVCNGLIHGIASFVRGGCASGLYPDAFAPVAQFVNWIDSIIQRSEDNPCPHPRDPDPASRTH
Description: (§1) The inactivation of proteases by substrate analog inhibitors in the presence of the substrate by competition for the enzyme-binding site, was measured by the method of Tian and Tsou (17). In this system, product formation in the presence of an irreversible inhibitor approaches an asymptote, as described by
(§2) log([P∞]−[P])=log [P∞]−0.43A[Y]t
(§3) where [P∞] is the concentration of product formed at time approaching infinity, [P] is the concentration of product at time t, [Y] is the inhibitor concentration, and A is the apparent inhibition rate constant in the presence of the substrate. A is given by
(§4) where k+0 is the rate constant for association of the inhibitor with the enzyme, K^−1 is the inverted Michaelis constant, and [S] the substrate concentration. The apparent inhibition rate constant A is the slope of a plot of log([P∞]−[P]) against t, to give the second-order rate constant of inhibition k+0

Proteinase 3 = target: T2, Proteinase 3 (Homo sapiens, UniProt P24158); experiment: as above; settings: for kobs/I range: PR3; for effect of P5 group on kobs/I: ammonium, Trp or Ile at P5
T2 sequence (P24158 28-248): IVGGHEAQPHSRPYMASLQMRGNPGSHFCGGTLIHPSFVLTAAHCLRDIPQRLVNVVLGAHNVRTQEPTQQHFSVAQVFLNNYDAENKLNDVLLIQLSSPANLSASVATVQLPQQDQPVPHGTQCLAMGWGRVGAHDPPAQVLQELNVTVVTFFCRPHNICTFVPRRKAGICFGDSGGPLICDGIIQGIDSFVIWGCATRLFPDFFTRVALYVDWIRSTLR
Description: The compounds of the invention are advantageously selective inhibitors of PR3. […] As described under the Examples below (see PR3 inhibition assay), and as is generally known, efficacy of particular inhibitors against a target protease, for example, recombinant human PR3, is determined by combining the target with a substrate (for example Suc-AanV-SBzI), both in the absence of the inhibitor and in the present of different concentrations of such inhibitor to be tested. Typically, the efficacy of irreversible inhibitors are measured in terms of the second order rate constant of inhibition value (11) or kobs/l. Preferred inhibitors of the invention have typically a kobs/I of more than 10 M^−1s^−1, preferably more than 100 M^−1s^−1, and more preferably of more than […].
as §1, §2, §3, §4

wtPR3 = target: T3, wtPR3 (Homo sapiens, UniProt P24158); experiment: Hydrolysis of paranitroanilide substrates, kcat/KM
T3 sequence (P24158 28-248): T2 sequence (P24158 28-248)
Description: (§5) Then we used the peptidyl sequences DYDA- and PYDA- to construct two paranitroanlide substrates bearing this sequence from P4 to P1. Ac-DYDA-pNA and Ac-PYDA-pNA were assayed with purified PR3 and HNE and the specificity constants kcat/Km were determined. […] We then constructed phosphonate inhibitors with the same peptidyl sequence i.e. Ac-DYDA^P(Oph-p-Cl)2 and Ac-PYDA^P(Oph-p-Cl)2.

HNE = target: T4, HNE (Homo sapiens, UniProt P08246); experiment: Hydrolysis of paranitroanilide substrates, kcat/KM
T4 sequence (P08246 30-267): T1 sequence (P08246 30-267)
Description: as §5

| Substance | Elastase kobs/[I] (Elastase) | Proteinase 3 kobs/[I] (Proteinase 3) | kobs/I range (Proteinase 3) | cleavage by purified PR3 (wtPR3) | cleavage by purified HNE (HNE) | effect of P5 group on kobs/I (Proteinase 3) |
| --- | --- | --- | --- | --- | --- | --- |
| Ac-Ahx-Pro-Tyr-Asp-Ala^P(O—C6H4-4-Cl)2 ({Ac-Ahx}-PYD[AlaP]; not fully specified (C-terminus); printed as Ac-Ahx-Pro-Tyr-Asp-Ala^P(O—C6H4-4-Cl)2; reading uncertain; also: C-terminal Ala as phosphonate analogue (Ala^P)) [Compound 9] | n.s | 2159 ± 235 M⁻¹ s⁻¹ | ~10^3 M^−1s^−1 | – | – | – |
| Ac-DYDA-pNA | – | – | – | rapidly cleaved | did not cleave | – |
| Ac-Ile-Pro-Tyr-Asp-Ala^P(O—C6H4-4-Cl)2 (Ac-IPYD[AlaP]; not fully specified (C-terminus); printed as Ac-Ile-Pro-Tyr-Asp-Ala^{P}(O—C₆H₄-4-Cl)₂; reading uncertain; also: C-terminal Ala as phosphonate analogue (Ala^P)) [Compound 12] | 15.1 ± 1.6 M⁻¹ s⁻¹ | 46 ± 0.1 M⁻¹ s⁻¹ | – | – | – | did not significantly increase |
| Ac-PYDA-pNA | – | – | – | rapidly cleaved | did not cleave | – |
| Ac-Pro-Tyr-Phe-Ala^P(O—C6H4-4-Cl)2 (Ac-PYF[AlaP]; not fully specified (C-terminus); printed as Ac-Pro-Tyr-Phe-Ala^{P}(O—C₆H₄-4-Cl)₂; reading uncertain; also: C-terminal Ala as phosphonate analogue (Ala^P)) [Compound 7] | n.s | 2.1 ± 0.2 M⁻¹ s⁻¹ | – | – | – | – |
| Ac-Trp-Pro-Tyr-Asp-Ala^P(O—C6H4-4-Cl)2 (Ac-WPYD[AlaP]; not fully specified (C-terminus); printed as Ac-Trp-Pro-Tyr-Asp-Ala^{P}(O—C₆H₄-4-Cl)₂; reading uncertain; also: C-terminal Ala as phosphonate analogue (Ala^P)) [Compound 11] | n.s | 15 ± 0.1 M⁻¹ s⁻¹ | – | – | – | did not significantly increase |
| Biotin-Asp-Tyr-Asp-Ala^P(O—C6H4-4-Cl)2 [Compound 3] | n.s | 18 ± 2.8 M⁻¹ s⁻¹ | – | – | – | – |
| Biotin-PEG3000-Pro-Tyr-Asp-Ala^P(O—C6H4-4-Cl)2 [Compound 13] | 46.5 M⁻¹ s⁻¹ | 1163 ± 0.1 M⁻¹ s⁻¹ | – | – | – | – |
| Biotin-Pro-Tyr-Asp-Avl^P(O—C6H4-4-Cl)2 [Compound 5] | n.s | 33360 ± 4150 M⁻¹ s⁻¹ | – | – | – | – |
| Biotin-Val-Tyr-Asp-Ala^P(O—C6H4-4-Cl)2 [Compound 6] | n.s | 17396 ± 835 M⁻¹ s⁻¹ | – | – | – | – |
| CH3(CH2)4-Pro-Tyr-Asp-Ala^P(O—C6H4-4-Cl)2 (pentyl-PYD[AlaP]; not fully specified (C-terminus); printed as CH3(CH2)4-Pro-Tyr-Asp-Ala^P(O—C6H4-4-Cl)2; reading uncertain; also: C-terminal Ala as phosphonate analogue (Ala^P)) [Compound 8] | n.s | 4418 ± 329 M⁻¹ s⁻¹ | ~10^3 M^−1s^−1 | – | – | – |
| ^+H2N-Pro-Tyr-Asp-Ala^P(O—C6H4-4-Cl)2 (H-PYD[AlaP]; not fully specified (C-terminus); printed as ^+H2N-Pro-Tyr-Asp-Ala^P(O—C6H4-4-Cl)2; reading uncertain; also: C-terminal Ala as phosphonate analogue (Ala^P)) [Compound 10] | n.s | 4.7 ± 0.5 M⁻¹ s⁻¹ | – | – | – | did not significantly increase |
